The nature of the series: protein stability index of a GFP-peptide fusion (yeast GPS) (PSI 1-4); higher = more stable; sorted into four equal gates, so the index is relative within each strain. The procedure, abridged:
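The protein stability index combines read frequencies across sorting gates, each weighted by its gate number and then summed. To obtain those frequencies, a pooled yeast library of GFP fusions to tiled 17-residue yeast protein peptides, on a plasmid also expressing Cherry, was grown to mid-log phase in leucine-free medium. The cells were sorted into four equal gates by GFP/Cherry ratio before plasmid amplification by PCR and Illumina sequencing.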

For 26 sequences, protein stability index results are on record in the supplement of paper PMC9732359.

± gives the uncertainty stated by the source.

Take NDSFKGLITNKMWFDVQ [PRP8]: the protein stability index is, setting by setting: (doa10∆) 2.98 ± 0.16; (pdr5∆) 2.99 ± 0.085; (san1∆) 3.03 ± 0.11; (ubr1∆) 3.08 ± 0.087.

Take DTFRAGAFDQLKQNAIR [SRP54]: the protein stability index was 2.82 ± 0.058 (doa10∆), 2.99 ± 0.056 (pdr5∆), 3.09 ± 0.053 (san1∆) and 3.09 ± 0.076 (ubr1∆).

As to QDKEGIPPDQQRLIFAG [RPS31], the protein stability index was 2.95 ± 0.068 (doa10∆), 2.8 ± 0.057 (pdr5∆), 3.19 ± 0.035 (san1∆) and 3.15 ± 0.033 (ubr1∆).

With SLCTVWKPNPSYDVENV [SRB5], the protein stability index came out at 2.47 ± 0.097 (doa10∆), 2.03 ± 0.098 (pdr5∆), 2.08 ± 0.19 (san1∆) and 1.84 ± 0.082 (ubr1∆).

With NFRTMQQQQMQQQQQQQ [SSN2], the protein stability index turned out to be 3.15 ± 0.23 (pdr5∆) and 2.37 ± 0.12 (san1∆).

For EVAQYLQEIYQTDAIKS [RPN5], the protein stability index (doa10∆) is 2.3 ± 0.084, the protein stability index (pdr5∆) turned out to be 2.44 ± 0.099, the protein stability index (san1∆) worked out at 2.47 ± 0.1 and the protein stability index (ubr1∆) came out at 2.29 ± 0.13.

Turning to MLSILEIFKKGYIKNNK [POP6], the protein stability index by setting is: (doa10∆) 2.63 ± 0.11; (pdr5∆) 2.84 ± 0.091; (san1∆) 3 ± 0.097; (ubr1∆) 3.08 ± 0.1.

Turning to FLFHAISGREGLVDTAV [RPO31], the protein stability index reads like this: (pdr5∆) 2.89 ± 0.28; (ubr1∆) 2.55 ± 0.13.

In the case of FKHGPMSLINDAMVTRT [SMD2], the protein stability index reads like this: (doa10∆) 2.9 ± 0.11; (pdr5∆) 2.43 ± 0.09; (san1∆) 2.76 ± 0.093; (ubr1∆) 3.01 ± 0.085.

As for VVEKEKIESLAGGGESD [UBP6], the protein stability index (doa10∆) is 3.35 ± 0.2, the protein stability index (pdr5∆) came out at 2.84 ± 0.24, the protein stability index (san1∆) was 2.89 ± 0.19 and the protein stability index (ubr1∆) came out at 3.34 ± 0.15.

Consider PPPPQQSQPIANQSATS [SNF5], for which the protein stability index reads like this: (doa10∆) 2.96 ± 0.057; (pdr5∆) 3.15 ± 0.049; (san1∆) 2.92 ± 0.043; (ubr1∆) 3.05 ± 0.041.

On to EDVLVNQILMSVNFFVS [RPL1A], for which the protein stability index runs as follows: (doa10∆) 1.91 ± 0.044; (pdr5∆) 2.4 ± 0.045; (san1∆) 2.08 ± 0.068; (ubr1∆) 2.23 ± 0.035.

Consider NELMRWPIVQKTYEPVL [RPN5], for which the protein stability index reads like this: (doa10∆) 2.25 ± 0.06; (pdr5∆) 2.39 ± 0.057; (san1∆) 2.24 ± 0.075; (ubr1∆) 1.83 ± 0.037.

EYMVQYIDEMYNHNDGG [RRI1]: the protein stability index stood at 3.03 ± 0.052 (doa10∆), 3.24 ± 0.076 (pdr5∆), 3.21 ± 0.14 (san1∆) and 3.19 ± 0.087 (ubr1∆).

As for DTQFTKLLDDNPTEFDW [SRB8], the protein stability index is, setting by setting: (doa10∆) 2.99 ± 0.089; (pdr5∆) 3.04 ± 0.071; (san1∆) 2.91 ± 0.058; (ubr1∆) 2.91 ± 0.043.

Turning to EGEPVNSPNYFVAKLAA [COR1], the protein stability index reads like this: (doa10∆) 3.31 ± 0.16; (pdr5∆) 3.16 ± 0.14; (san1∆) 3.37 ± 0.13; (ubr1∆) 3.14 ± 0.17.

Regarding KVISNPLLARKQFVVDV [RPS24A], the protein stability index turned out to be 1.95 ± 0.088 (doa10∆), 1.94 ± 0.048 (pdr5∆), 2.14 ± 0.076 (san1∆) and 2.07 ± 0.05 (ubr1∆).

NSADAAYAQVEIQPRAN [FAS2] had a protein stability index (doa10∆) of 2.82 ± 0.054, a protein stability index (pdr5∆) of 2.76 ± 0.065, a protein stability index (san1∆) of 2.21 ± 0.061 and a protein stability index (ubr1∆) of 2.79 ± 0.048.

Consider ASYLTPLLEAKKLVWPL [SSN2], for which the protein stability index worked out at 2.13 ± 0.14 (doa10∆), 2.04 ± 0.066 (pdr5∆), 2.86 ± 0.15 (san1∆) and 2.71 ± 0.084 (ubr1∆).

FAWSKPSTGSNLQQQQQ [YGR119C/NUP57]: the protein stability index came to 3.02 ± 0.061 (doa10∆), 3.06 ± 0.063 (pdr5∆), 3.02 ± 0.05 (san1∆) and 2.95 ± 0.045 (ubr1∆).

As for KELDALQEKEQLYFKKK [ISW2], the protein stability index runs as follows: (doa10∆) 3.22 ± 0.11; (pdr5∆) 3.15 ± 0.14; (san1∆) 3.24 ± 0.25; (ubr1∆) 3.55 ± 0.11.

In turn, EQNHLDNNYNTAETNNK [YDL088C/ASM4] returned a protein stability index (doa10∆) of 3 ± 0.056, a protein stability index (pdr5∆) of 2.96 ± 0.067, a protein stability index (san1∆) of 3.02 ± 0.043 and a protein stability index (ubr1∆) of 2.93 ± 0.065.

Turning to LGPLSYQNMAFITAKDK [YJR042W/NUP85], the protein stability index runs as follows: (doa10∆) 2.43 ± 0.075; (pdr5∆) 2.22 ± 0.088; (san1∆) 2.26 ± 0.079; (ubr1∆) 2.31 ± 0.058.

As for VNGPNVHPGANYLLKRN [RPO31], the protein stability index is, setting by setting: (doa10∆) 3.29 ± 0.056; (pdr5∆) 3.21 ± 0.068; (san1∆) 3.26 ± 0.044; (ubr1∆) 3.21 ± 0.037.

Consider KKRSHHGKASRQQYYSG [SNF6], for which the protein stability index (doa10∆) amounted to 3.05 ± 0.088, the protein stability index (pdr5∆) came to 3.11 ± 0.062, the protein stability index (san1∆) was found to be 2.92 ± 0.065 and the protein stability index (ubr1∆) came out at 2.98 ± 0.079.

As to KSAMDTFKSVSKYGMLL [POP3], the protein stability index (doa10∆) was 2.41 ± 0.063, the protein stability index (pdr5∆) turned out to be 2.87 ± 0.056, the protein stability index (san1∆) came out at 2.7 ± 0.07 and the protein stability index (ubr1∆) is 2.45 ± 0.055.
